What is called Kd is the constant that tells how readily two partners part at equilibrium. A high value points to lower affinity.

The target in this assay is MtbDop-F (Mycobacterium tuberculosis deamidase of Pup / depupylase, randomly fluorescein-labeled) (Mycobacterium tuberculosis) (UniProt P9WNU9). The assay is described as follows: MST; Monolith NT.115, starting temperature 19 C; 30 nM MtbDop-F with serial 1:1 dilutions of MtbPup or MtbPup ~ FabD-3KR from 25 uM to 15 nM; 50 mM HEPES-NaOH pH 7.5, 150 mM NaCl, 1 mM MgCl2, 10% glycerol, 0.01% Tween-20; T-jump analysis, fit assuming 1:1 binding.

In turn, “MtbPup (prokaryotic ubiquitin-like protein from Mycobacterium tuberculosis, free) (from UniProt P9WHN5 1-64) (natural protein)” yielded a Kd of 14.6 nM.

Values taken from PMC5286830, “Prokaryotic ubiquitin-like protein remains intrinsically disordered when covalently attached to proteasomal target proteins” (BMC Structural Biology, 2017).
